Assay results published in patent publication US20040110131A1.

Biological target: TGFβ in media conditioned by B16F10 melanoma cells (murine (produced by murine B16F10 cells))
Assay: cell-based or functional assay

Row | Substance | level of active TGFβ as percent of total TGFβ (MLEC PAI-1 promoter luciferase assay) (% of total TGFβ)
1 | TSR2+RFK recombinant protein (second type 1 repeat of human TSP-1 with the RFK sequence, amino acids 411-473) | 30
2 | TSR2 recombinant protein (second type 1 repeat of human TSP-1 without the DKRFK sequence, amino acids 416-473) | 4.8
